# Substitutions are numbered along the chain they refer to.
# Legend:
# [1] = target: T1, PDK1 catalytic domain (Homo sapiens, UniProt O15530); assay: TNP-ATP fluorescence probing of the ATP binding site conformation; assay type: biochemical; conditions: 40 μM TNP-ATP, 15 μM PDK1 catalytic domain
# T1 construct: The catalytic domain (CD) of PDK1 50-359 and its mutants
# T1 sequence (O15530 50-359): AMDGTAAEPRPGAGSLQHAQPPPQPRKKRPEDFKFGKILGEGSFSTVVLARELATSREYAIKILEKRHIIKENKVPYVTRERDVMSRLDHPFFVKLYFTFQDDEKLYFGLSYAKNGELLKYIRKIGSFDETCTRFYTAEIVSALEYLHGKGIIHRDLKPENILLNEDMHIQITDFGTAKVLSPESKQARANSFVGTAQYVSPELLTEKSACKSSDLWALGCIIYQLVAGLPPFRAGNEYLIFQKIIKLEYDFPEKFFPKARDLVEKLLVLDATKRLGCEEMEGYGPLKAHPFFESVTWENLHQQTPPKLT
# Excerpt: Probing the conformation of the ATP binding site in PDK1: The activation of PDK1 by HM-polypeptides and small compounds is due to a change in the conformation of the enzyme. We probed the conformation of the ATP binding site in PDK1 by scanning the steady-state fluorescence of TNP-ATP/PDK1, in the presence or absence of P-HM-polypeptides, PIFtide, or small molecular weight compounds. Data were obtained in a Varian Cary Eclipse spectrofluorometer (excitation λ=479 nm; emission scanning, λ=500-600 nm; excitation slit=10 nm; emission slit=10 nm) at a rate of 200 nm/min, with 150 datapoints/100 nm scanning and 0.3 s averaging time. The incubation was performed at 20° C. in a buffer containing 50 mM Tris pH 7.5, 0.1 mM EDTA, 187 mM NaCl, 40 μM TNP-ATP, 15 μM PDK1 catalytic domain, 1 mM DTT and 1% DMSO. In the absence of PDK1, TNP-ATP produced approximately 1.5 arbitrary units (a.u.) of fluorescence, and the inclusion of PDK1 increased its fluorescence intensity to approximately 3.3 a.u. […] In preliminary tests, inclusion of 2.5 mM MgCl2 in the assay mix produced similar results. Data for each condition are the average of 3 scans.
# [2] = system: PDK1; assay: PDK1 protein kinase activity test with T308tide substrate; assay type: biochemical, human; conditions: T308tide as substrate
# PDK1, sequence (O15530 51-360 limits assumed): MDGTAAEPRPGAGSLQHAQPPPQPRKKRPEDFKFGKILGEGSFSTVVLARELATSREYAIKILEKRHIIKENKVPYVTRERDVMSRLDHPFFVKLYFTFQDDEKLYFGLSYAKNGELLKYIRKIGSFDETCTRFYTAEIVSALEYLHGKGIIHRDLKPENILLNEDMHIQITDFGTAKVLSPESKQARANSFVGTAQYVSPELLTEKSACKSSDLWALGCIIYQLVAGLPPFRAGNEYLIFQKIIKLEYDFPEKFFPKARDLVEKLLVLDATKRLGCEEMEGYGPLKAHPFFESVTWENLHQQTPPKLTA
# Experimental: In brief, PDK1 activity assay was performed at room temperature (22° C.) in a 20 μl mix containing 50 mM Tris pH 7.5, 0.05 mg/ml BSA, 0.1% β-mercaptoethanol, 10 mM MgCl2, 100 μM [γ^32P]ATP (5-50 cpm/pmol), 0.003% Brij, 150 ng PDK1, and T308tide (from 0.1 to 1 mM). […] Experiments were repeated at least twice.
# [3] = target: T2, PDK1[Phe224Trp] (Homo sapiens, UniProt O15530, F224W); assay: PDK1 protein kinase activity test with T308tide substrate, Phe224Trp mutant; assay type: biochemical; conditions: PDK1 CD 50-359, T308tide as substrate
# T2 construct: The catalytic domain (CD) of PDK1 50-359 and its mutants Phe224Trp and Thr226Trp were expressed in insect cells and purified; made in house; host or cells: insect cells
# T2 sequence (O15530 50-359 F224W): T1 sequence (O15530 50-359) with F175W
# Experimental: Protein kinase activity tests: PDK1 activity tests were performed essentially as previously described (Biondi, R. M. et al., Embo. J. 20:4380-4390 (2001); Balendran, A. et al., J. Biol. Chem. 275:20806-20813 (2000); Biondi, R. M. et al., Embo. J. 19:979-988 (2000)) using T308tide as a substrate for PDK1. In brief, PDK1 activity assay was performed at room temperature (22° C.) in a 20 μl mix containing 50 mM Tris pH 7.5, 0.05 mg/ml BSA, 0.1% β-mercaptoethanol, 10 mM MgCl2, 100 μM [γ^32P]ATP (5-50 cpm/pmol), 0.003% Brij, 150 ng PDK1, and T308tide (from 0.1 to 1 mM). When appropriate, the PDK1 activity assay was performed in a 96 well format and 4 μl aliquots spotted with on p81 phosphocellulose papers (Whatmann) using ep motion 5070 (Eppendorf), washed in 0.01% phosphoric acid, dried, and then exposed and analysed using PhosphoImager technology (Typhoon, GE Healthcare). Activity measurements were performed in duplicates with less than 10% difference between pairs. Experiments were repeated at least twice. PDK1 specific activity at 22° C. was approximately 0.25 U/mg when the substrate concentration was 0.1 mM T308tide. […]
sequence,measurement,setting,value
"REPRILSEEEQEMFRDFDYIADWC [PIFtide, polypeptide derived from the C-terminal 24 amino acids of the PDK1 substrate PRK2]",effect on TNP-ATP fluorescence intensity in the presence of PDK1,[1],decreased
same,activation of PDK1,[2],activated
same,activation of PDK1[Phe224Trp],[3],activated

# — US20120003668A1, “HIGH RESOLUTION COMPLEX STRUCTURE AND ALLOSTERIC EFFECTS OF LOW MOLECULAR WEIGHT ACTIVATORS ON THE PROTEIN KINASE PDK1” (UNIVERSITAET DES SAARLANDES, priority 2008, published 2012)
